Results as given in publication doi:10.1101/2023.03.09.531992 (bioRxiv, 2023).
Where a chain is given by its changes, count along the chain named. No end group written: not given here.

Legend:
[1] = biological target: T1, S. cerevisiae β’WD40 domain (N-terminal WD40 domain of β’-COPI), wild type (S. cerevisiae, UniProt P41811 1-300); assay: NMR titration
T1 sequence: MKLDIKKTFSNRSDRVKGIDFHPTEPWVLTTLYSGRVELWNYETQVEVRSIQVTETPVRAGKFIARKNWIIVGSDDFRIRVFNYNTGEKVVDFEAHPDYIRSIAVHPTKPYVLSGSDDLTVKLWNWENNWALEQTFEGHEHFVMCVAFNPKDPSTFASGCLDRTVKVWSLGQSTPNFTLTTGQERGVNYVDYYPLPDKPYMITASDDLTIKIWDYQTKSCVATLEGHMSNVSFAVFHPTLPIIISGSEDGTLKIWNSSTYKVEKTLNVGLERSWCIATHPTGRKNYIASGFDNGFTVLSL

[2] = biological target: T2, S. pombe αWD40 domain (N-terminal WD40 domain of α-COPI), wild type (S. pombe, UniProt Q96WV5 1-327); assay: BLI
T2 sequence: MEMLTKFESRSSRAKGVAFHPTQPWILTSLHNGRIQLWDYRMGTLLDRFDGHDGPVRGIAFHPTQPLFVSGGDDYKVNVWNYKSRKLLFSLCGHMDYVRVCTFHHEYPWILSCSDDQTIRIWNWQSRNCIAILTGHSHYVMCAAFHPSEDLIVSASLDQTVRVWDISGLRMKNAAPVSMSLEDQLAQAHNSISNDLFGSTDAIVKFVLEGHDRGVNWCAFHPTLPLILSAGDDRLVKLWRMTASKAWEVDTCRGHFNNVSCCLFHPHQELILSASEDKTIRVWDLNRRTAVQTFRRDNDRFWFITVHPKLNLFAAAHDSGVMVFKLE

[3] = biological target: T3, S. pombe αWD40 Tyr139Ala mutant (S. pombe, UniProt Q96WV5 1-327, Tyr139Ala); assay: BLI
T3 sequence: T2 sequence with Y139A

[4] = biological target: T1, S. cerevisiae β’WD40 domain (N-terminal …); assay: BLI
[5] = biological target: T4, S. pombe αWD40 Arg300Ala mutant (S. pombe, UniProt Q96WV5 1-327, Arg300Ala); assay: BLI
T4 sequence: T2 sequence with R300A

[6] = biological target: T5, S. pombe αWD40 Arg13Ala mutant (S. pombe, UniProt Q96WV5 1-327, Arg13Ala); assay: BLI
T5 sequence: T2 sequence with R13A

CCKFDEDDSEPVLKGVKLHYE (cysteine pairing not given here; also: 15N isotope label) [15N-labeled clientized (Thr1273Glu) SARS-CoV-2 S C-terminal tail peptide (NMR)]
binding result [1]: binds

GVKLHYE-NH2 (also: biotinylated)
binding result [2]: binds

GVKLHYE (also: biotinylated) [clientized (Thr1273Glu) SARS-CoV-2 S tail heptapeptide (residues 1267-1273), biotinylated]
Kd [3]: 3.8 ± 0.36 µM | Kd [4]: 2.3 ± 0.23 µM | Kd [5]: 4.2 ± 0.4 µM

GVKLHYT (also: biotinylated) [wild-type SARS-CoV-2 S tail heptapeptide (residues 1267-1273), biotinylated]
binding result [6]: binds | Kd [5]: 3.6 ± 0.4 µM
